Laboratory results reported in article PMC5412568 (The Journal of Cell Biology, 2017).
Numbering of substitutions follows the chain as printed. Numbers in names are those of the source. Read-outs that look alike come from different tables or passages of the source.

B1: cytoDATL (aa 1-415) G343C, K320T (domain or fragment)
chain: MGGSAVQVINASEEHTFVLNEDALSEVLMRDEVKDRFVCVVSVAGAFRKGKSFLLDFFLRYMYSKYVHHDATDWLGGESDPLEGFSWRGGSERDTTGILMWSDIFLHDYPNGDKIAIILLDTQGAFDSQSTVRDCATVFALSTMLSSVQIYNLSQNIQEDDLQHLQLFTEYGRLALADTGKKPFQRLQFLVRDWSFPYEAEYGALGGDKILKRRLEVSDKQHPELQSLRRHISSCFTEVACFLMPHPGLNVATNPKFDGRLQDITPEFKSSLRSLVPMLLAPDNLVYKEISGQRVRARDLIQYFQSYMNIYKGNELPEPTSMLVATAEANHLTAVAAAKELYCQLMEEVCGGTRPYLSTAHLQTEHLRVKDKALFQFAAKRKMGGEEFTEKFRKQLEDDLEEVFTNYQAHNESKN
modifications: Cy3 maleimide on the engineered cysteine G343C in the PIFE assays; unlabelled in cross-linking
B2: cytoDATL (aa 1-415) G343C, K320N (domain or fragment)
chain: B1 chain with T320N
modifications: Cy3 maleimide on the engineered cysteine G343C in the PIFE assays; unlabelled in cross-linking
B3: cytoDATL (aa 1-415) G343C, K320G (domain or fragment)
chain: B1 chain with T320G
modifications: Cy3 maleimide on the engineered cysteine G343C in the PIFE assays; unlabelled in cross-linking
B4: cytoDATL (aa 1-415) G343C, K320E, E328R (domain or fragment)
chain: B1 chain with T320E, E328R
modifications: Cy3 maleimide on the engineered cysteine G343C
B5: cytoDATL (aa 1-415) G343C, P317G (domain or fragment)
chain: B1 chain with P317G, T320K
modifications: Cy3 maleimide on the engineered cysteine G343C in the PIFE assays; unlabelled in cross-linking
B6: cytoDATL (aa 1-415) K320G with mCerulean3 at the C terminus (domain or fragment)
chain: B1 chain with T320G, C343G
B7: cytoDATL (aa 1-415) G343C, K320M (domain or fragment)
chain: B1 chain with T320M
modifications: Cy3 maleimide on the engineered cysteine G343C in the PIFE assays; unlabelled in cross-linking

Experiments:
[1] = target: the molecule itself; test: protein-induced fluorescence enhancement
[2] = target: the molecule itself; test: protein-induced fluorescence enhancement; remark: listed apart in the source
[3] = target: cytoDATL (aa 1-415) K320G with super YFP at the C terminus (D. melanogaster, UniProt Q9VC57 1-415, K320G); test: FRET or BRET

Row | Binder | binding result [1] | further results
1 | B1 | binds | –
2 | B2 | binds | –
3 | B3 | binds | –
4 | B4 | – | binding result [2]: binds
5 | B5 | binds | –
6 | B6 | – | binding result [3]: binds
7 | B7 | binds | –
